Data from patent publication US20210047372A1 (Affibody, published 2021).
Residue numbers refer to the chain shown, from its start. In names and notes the source's numbering stands.

B1: Y00263 (designed binder)
chain: MGSSHHHHHHGSSLAEAKEAAIAELKSKGVGAYQKSFIELAKSVEHVELLKEAILADLP
notes: Y00032 with D13K
B2: Y00276 (designed binder)
chain: B1 chain with K26D, A56K
notes: Y00032 with A43K
B3: Y00264 (designed binder)
chain: B1 chain with K26D, K28Y
notes: Y00032 with K15Y
B4: Y00269 (designed binder)
chain: B1 chain with K26D, S36K
notes: Y00032 with S23K
B5: Y00272 (designed binder)
chain: B1 chain with K26D, A41G
notes: Y00032 with A28G
B6: Y00267 (designed binder)
chain: B1 chain with K26D, A32E
notes: Y00032 with A19E
B7: Y00296 (designed binder)
chain: B1 chain with K26D, K35I, S36K, E39Q, E48Q, E52Q
notes: Y00293 with E26Q
B8: Y00268 (designed binder)
chain: B1 chain with K26D, K35I
notes: Y00032 with K22I
B9: Y00265 (designed binder)
chain: B1 chain with K26D, V30I
notes: Y00032 with V17I
B10: Y00273 (designed binder)
chain: B1 chain with K26D, E45Q
notes: Y00032 with E32Q
B11: Y00274 (designed binder)
chain: B1 chain with K26D, E48Q
notes: Y00032 with E35Q
B12: Y00266 (designed binder)
chain: B1 chain with K26D, G31S
notes: Y00032 with G18S
B13: Y00271 (designed binder)
chain: B1 chain with K26D, E39Q
notes: Y00032 with E26Q
B14: Y00275 (designed binder)
chain: B1 chain with K26D, E52Q
notes: Y00032 with E39Q
B15: Y00296C (designed binder)
chain: MGSSHHHHHHTIDEWLLAEAKEAAIAELDSKGVGAYQIKFIQLAKSVEHVQLLKQAILADLP
notes: if it is only 46 residues long, TIDEWL must be put before it
B16: Y00299 (designed binder)
chain: MGSSHHHHHHGSSLAEAKEAAIAELDSKGVGAYQIKFIQVAKTVEQVQILKQAILADLPA
notes: From library Ylib002Naive.I
B17: Y02711 (designed binder)
chain: MGSSHHHHHHGSSLAEAKEAAIAELDSKGVGAAKIKWIEDAKSVETVQFLKQAILAELPA
notes: Y00358 with Q26E
B18: Y02709 (designed binder)
chain: B17 chain with I22L, E39Q
notes: Y00358 with I9L
B19: Y02710 (designed binder)
chain: B17 chain with K28Y, E39Q
notes: Y00358 with K15Y
B20: Y00345 (designed binder)
chain: B16 chain with Q46A, I49A, L50I
notes: From library Ylib002Naive.I
B21: Y02713 (designed binder)
chain: B16 chain with K28Y, V40I, K42H, Q46E, I49L, L50M
notes: Y00310 with K15Y
B22: Y02714 (designed binder)
chain: B16 chain with Q39E, V40I, K42H, Q46E, I49L, L50M
notes: Y00310 with Q26E
B23: Y02717 (designed binder)
chain: B16 chain with K28Y, Q39E, V40I, K42H, Q46E, I49L, L50M
notes: Y00310 with K15Y + Q26E
B24: Y00310 (designed binder)
chain: B16 chain with V40I, K42H, Q46E, I49L, L50M
notes: From library Ylib002Naive.I
B25: Y02716 (designed binder)
chain: B17 chain with K28Y, A33R, K34Q, D40Q, T46V, F49W, E57D
notes: Y00301 with K15Y + Q26E
B26: Y00304 (designed binder)
chain: B16 chain with K42H, T43D, Q46E
notes: From library Ylib002Naive.I
B27: Y00358 (designed binder)
chain: B17 chain with E39Q
notes: From library Ylib002Naive.I
B28: Y02715 (designed binder)
chain: B17 chain with K28Y
notes: Y00358 with K15Y + Q26E
B29: Y00032 (designed binder)
chain: MGSSHHHHHHGSSLAEAKEAAIAELDSKGVGAYQKSFIELAKSVEHVELLKEAILADLPASGSVD
B30: Y00125 (designed binder)
chain: B29 chain with I22N
notes: Differs from Y00032 only in position 9 (N instead of I)
B31: Y00296b (designed binder)
chain: MGSSHHHHHHGSSLAEAKEAAIAELDSKGVGAYQIKFIQLAKSVEHVQLLKQAILADLPGYS
notes: if it is only 46 residues long, GYS must be added
B32: Y00296a (designed binder)
chain: MGSSHHHHHHGSSLAEAKEAAIAELDSKGVGAYQIKFIQLAKSVEHVQLLKQAILADLPASYGS
notes: if it is only 46 residues long, ASYGS must be added at the C-terminus
B33: Y00330 (designed binder)
chain: MGSSHHHHHHGSSLAEAKEAAIAELDSKGVGAKYIKMIQMAKHVETVQYMKQAILASLPA
notes: From library Ylib002Naive.I
B34: Y00356a (designed binder)
chain: B33 chain with M40H, K42H, H43Y, T46V, Y49W, M50L, S57H
notes: From library Ylib002Naive.I; if it is only 46 residues long, an A must be added at the C-terminus
B35: Y00361 (designed binder)
chain: B33 chain with Y34F, M40S, H43L, Y49L, M50L, S57D
notes: From library Ylib002Naive.I
B36: Y02444 (designed binder)
chain: MGSSHHHHHHGSSLAEAKEAAIAELDSKGVGAVEIKQIQEALLVEIVQLLKQAILAVLPA
notes: From library Ylib002Naive.I; also called Y002444
B37: Y02699 (designed binder)
chain: B36 chain with Q39E
notes: Y02444 with Q26E
B38: Y02700 (designed binder)
chain: B36 chain with I22L, V33G, E34D, Q37D, E40D
notes: Y02415 with I9L
B39: Y02698 (designed binder)
chain: B36 chain with K28Y
notes: Y02444 with K15Y
B40: Y02697 (designed binder)
chain: B36 chain with I22L
notes: Y02444 with I9L
B41: Y02447 (designed binder)
chain: B36 chain with V33H, E34G, Q37E, E40D, L42I, V57A
notes: From library Ylib002Naive.I
B42: Y02374 (designed binder)
chain: B36 chain with V33A, Q37R, E40A, L42E
notes: From library Ylib002Naive.I
B43: Y02465 (designed binder)
chain: B36 chain with V33N, E34H, Q37A, E40H, L42Q, L43F
notes: From library Ylib002Naive.I
B44: Y02415 (designed binder)
chain: B36 chain with V33G, E34D, Q37D, E40D
notes: From library Ylib002Naive.I
B45: Y02495 (designed binder)
chain: B36 chain with V33E, Q37E, E40G, L42M
notes: From library Ylib002Naive.I
B46: Y00035 (designed binder)
chain: MGSSHHHHHHGSSLAEAKEAANAELDSYGVQANSIEAIEQGLFVEVVELLKELILAALPASGSVD
notes: From library Ylib001Naive.I

What follows are binders tested against T1, insulin (UniProt P01308 25-54; P01308 90-110, limits assumed) (assay: SPR, Biacore T200; target immobilized on CM5, His6-tagged Y variant injected; 1:1 Langmuir).
T1 construct: Mature insulin has two chains (A and B) from one precursor; also called b-insulin
T1 sequence (P01308 25-54 limits assumed, form in doubt, chain 1 of 2): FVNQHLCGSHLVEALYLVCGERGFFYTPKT
T1 sequence (P01308 90-110 limits assumed, form in doubt, chain 2 of 2): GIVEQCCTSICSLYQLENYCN
Procedure: (§1) Kinetic constants (kₐ and kd) and affinities (KD) were determined for Hiss-tagged Y variants using a Biacore T200 instrument (GE Healthcare). Target proteins C4, IL-6 and insulin, respectively, were immobilized in separate flow cells on the carboxylated dextran layer of different CM5 chip surfaces (GE Healthcare).
(§2) Immobilization was performed using amine coupling chemistry according to the manufacturer's protocol and PBS pH 7.4 supplemented with 0.1 Tween20 (PBST 0.1%) as running buffer. The ligand immobilization levels on the surfaces were 3280-8830 RU for C4, 495-1184 RU for IL-6, and 270-282 RU for insulin. One flow cell surface on each chip was activated and deactivated for use as blank during analyte injections. In the kinetic experiment, PBST 0.1% was used as running buffer at a flow rate of 30 μl/min. The analytes, i.e. Y variants, were each diluted in PBST 0.1 buffer at concentrations of 1000, 500, 100, 50 and 10 nM and injected for 5 min, followed by dissociation in running buffer for 3 min. After dissociation, the surfaces were regenerated with one injection of 30 μl 10 mM HCl. Kinetic constants were calculated from the sensorgrams using the Langmuir 1:1 model of Biacore T200 Evaluation software 2.0 (GE Healthcare).
For B1, the Kd was 130 nM.
B2 was tested, and the Kd was 76 nM.
Work on B3 yielded a Kd of 64 nM.
Work on B4 yielded a Kd of 390 nM.
B5 was tested, and the Kd was 110 nM.
B6 was tested, and the Kd was 59 nM.
B7 gave a Kd of 37 nM.
B8 gave a Kd of 84 nM.
B9 gave a Kd of 120 nM.
With B10 the Kd was 77 nM.
For B11, the Kd was 56 nM.
For B12, the Kd was 56 nM.
With B13 the Kd was 47 nM.
Work on B14 yielded a Kd of 59 nM.
For B15, the Kd was 51 nM.
B16 was tested, and the Kd was 6.5 nM, the koff was 0.002 s⁻¹ and the kon was 310000 M⁻¹ s⁻¹.
Binder B17 has a Kd of 54 nM, a koff of 0.008 s⁻¹ and a kon of 150000 M⁻¹ s⁻¹.
Binder B18 has a Kd of 380 nM, a koff of 0.01 s⁻¹ and a kon of 27000 M⁻¹ s⁻¹.
With B19 the Kd was 14 nM, the koff was 0.0027 s⁻¹ and the kon was 190000 M⁻¹ s⁻¹.
For B20, the Kd was 61 nM, the koff was 0.017 s⁻¹ and the kon was 290000 M⁻¹ s⁻¹.
B21 showed a Kd of 190 nM, a koff of 0.014 s⁻¹ and a kon of 110000 M⁻¹ s⁻¹.
For B22, the Kd was 540 nM, the koff was 0.16 s⁻¹ and the kon was 290000 M⁻¹ s⁻¹.
Binder B23 has a Kd of 610 nM, a koff of 0.02 s⁻¹ and a kon of 33000 M⁻¹ s⁻¹.
B24 showed a Kd of 37 nM, a koff of 0.0063 s⁻¹ and a kon of 170000 M⁻¹ s⁻¹.
With B25 the Kd was 7.6 nM, the koff was 0.21 s⁻¹ and the kon was 2.7e+07 M⁻¹ s⁻¹.
B26 showed a Kd of 21 nM, a koff of 0.0011 s⁻¹ and a kon of 85000 M⁻¹ s⁻¹.
Binder B27 has a Kd of 10 nM, a koff of 0.0023 s⁻¹ and a kon of 220000 M⁻¹ s⁻¹.
B28 gave a Kd of 280 nM, a koff of 0.0019 s⁻¹ and a kon of 6700 M⁻¹ s⁻¹.
B29 gave a Kd of 50 nM.
Work on B30 yielded a Kd of 110 nM.
B31 gave a Kd of 31 nM.
B32 gave a Kd of 22 nM.
B33 showed a Kd of 120 nM, a koff of 0.0037 s⁻¹ and a kon of 30000 M⁻¹ s⁻¹.
B34 showed a Kd of 0.17 nM, a koff of 0.0061 s⁻¹ and a kon of 3.4e+07 M⁻¹ s⁻¹.
For B35, the Kd was 310 nM, the koff was 0.0036 s⁻¹ and the kon was 12000 M⁻¹ s⁻¹.

These binders were tested against T2, interleukin 6 (IL-6) (UniProt P05231 30-212) in the same assay as above.
T2 construct: also called b-IL-6
Procedure: as §1, §2
Binder B36 has a Kd of 61 nM, a koff of 0.0055 s⁻¹ and a kon of 90000 M⁻¹ s⁻¹.
B37 was tested, and the Kd was 200 nM, the koff was 0.0029 s⁻¹ and the kon was 19000 M⁻¹ s⁻¹.
B38 showed a Kd of 62 nM, a koff of 0.0025 s⁻¹ and a kon of 46000 M⁻¹ s⁻¹.
Work on B39 yielded a Kd of 120 nM, a koff of 0.0033 s⁻¹ and a kon of 28000 M⁻¹ s⁻¹.
For B40, the Kd was 150 nM, the koff was 0.009 s⁻¹ and the kon was 50000 M⁻¹ s⁻¹.
With B41 the Kd was 160 nM, the koff was 0.0017 s⁻¹ and the kon was 11000 M⁻¹ s⁻¹.
For B42, the Kd was 120 nM, the koff was 0.0017 s⁻¹ and the kon was 14000 M⁻¹ s⁻¹.
B43 showed a Kd of 270 nM, a koff of 0.0021 s⁻¹ and a kon of 7500 M⁻¹ s⁻¹.
Work on B44 yielded a Kd of 160 nM, a koff of 0.0015 s⁻¹ and a kon of 9700 M⁻¹ s⁻¹.
In the case of B45, the Kd is reported as 240 nM, the koff is reported as 0.0017 s⁻¹ and the kon is reported as 7100 M⁻¹ s⁻¹.
With B46 the Kd was 360 nM.
